Test results as given in US8703913B2, “Sensor” (Medical Research Council, priority 2008, dated 2014).
Substitutions are numbered along the chain they refer to. Names may count otherwise. Read-outs that look alike come from different tables or passages of the source. Blank lines part the entries; values can stand above or below the molecule they belong to.

Assays:
[1] = reported (19), cited from earlier work
[2] = reported (19); read-out: dissociation constant for ethenoADP; cited from earlier work
[3] = 37° C.; reported (16); cited from earlier work
[4] = Fluorescence titration of labeled ParM with ADP; type: binding; settings: Table 2, 20° C.; for ADP F+ADP/F−ADP: MDCC-ParM mutants; for Kd: fluorescence titration
Procedure: MDCC fluorescence was excited at 431 nm and detected at 474 nm, for the rhodamine-labeled proteins, excitation and emission wavelengths of 553 nm and 578 nm were used. […] The fraction of ParM bound to ADP was calculated from the fluorescence intensities.
The MDCC fluorescence was excited at 431 nm and emission was recorded at 474 nm. The equilibrium dissociation constants were determined by fitting a quadratic binding curve to the data.
(§1) The equilibrium dissociation constants were determined by fitting a quadratic binding curve to the data and are listed in Table Y. For the plot the experimental fluorescence intensities were normalized to the maximal fluorescence change obtained at saturation with ADP.
(§2) [formula] where [P] and [L] are the total concentrations of protein and ligand, respectively, Kd is the dissociation constant and Fmin and Fmax are the fluorescence intensities of the free and ligand bound protein.
(§3) Fluorescence spectra and titrations were measured in a Cary Eclipse spectrofluorimeter (Varian). Excitation and emission spectra were recorded with 5 nm slit width at emission and excitation wavelength of 576 nm and 553 nm, respectively. In titration experiments rhodamine fluorescence was measured at the same excitation/emission wavelength. Titration data were analyzed with a quadratic binding curve using the program Grafit 5.0 (7).

[5] = Stopped-flow kinetics of ADP binding and dissociation; settings: Table 3; for kon: ADP association, stopped-flow; for kon / koff: 20° C.; for Kd: calculated as koff/kon; for koff: displacement with unlabeled ParM
[6] = Fluorescence titration of labeled ParM with ATP; type: binding; settings: Table 2; for ATP F+ATP/F−ATP: MDCC-ParM mutants; for ATP F+ATP/F−ATP / Kd: 20° C.; for Kd: highly purified ATP containing only 0.03% ADP
Procedure: The MDCC fluorescence was excited at 431 nm and emission was recorded at 474 nm. The equilibrium dissociation constants were determined by fitting a quadratic binding curve to the data. For the plot the experimental fluorescence intensities were converted to the nucleotide bound fraction of ParM.
as §1
ADP and ATP were purchased from Sigma at the highest purity available. The purity of the nucleotides was analysed by HPLC using a Partisphere SAX column, 125×4.5 mm (Whatman). Nucleotide separation was performed isocratic with 0.3 M (NH4)2HPO4 buffer pH 4.0, 25% MeOH, and the absorbance at 260 nm was monitored.
as §2, §3

B1: wild-type ParM: prokaryotic actin homologue encoded on Escherichia coli plasmid R1, accession P11904 (protein, listed as Escherichia coli)
chain: MLVFIDDGSTNIKLQWQESDGTIKQHISPNSFKREWAVSFGDKKVFNYTLNGEQYSFDPISPDAVVTTNIAWQYSDVNVVAVHHALLTSGLPVSEVDIVCTLPLTEYYDRNNQPNTENIERKKANFRKKITLNGGDTFTIKDVKVMPESIPAGYEVLQELDELDSLLIIDLGGTTLDISQVMGKLSGISKIYGDSSLGVSLVTSAVKDALSLARTKGSSYLADDIIIHRKDNNYLKQRINDENKISIVTEAMNEALRKLEQRVLNTLNEFSGYTHVMVIGGGAELICDAVKKHTQIRDERFFKTNNSQYDLVNGMYLIGN
ethenoATP bound tighter than ethenoADP [1]: 60 fold
Kd ([1]; read-out: Kd for ethenoATP): 40 nM
Kd ([1]; read-out: dissociation constant for ethenoATP): 40 nM
Kd [2]: 2400 nM
ATPase activity accelerated by polymerization [3]: ~3 min⁻¹

Kd [4]: 330 nM
kon [5]: 980000 M⁻¹ s⁻¹
Kd [5]: 220 nM
koff [5]: 0.22 s⁻¹
Kd ratio ATP/ADP [6]: 324
Kd [6]: 107000 nM
B2: T174A T175A: MDCC-ParM (His6/I27C/T174A/T175A/C287A) (conjugate, UniProt P11904 1-320, looked up, variant I27C T174A T175A C287A)
Plasmid segregation protein …: B1 chain with I27C, T174A, T175A, C287A
modifications: MDCC label; His6 tag
ADP F+ADP/F−ADP [4]: 3.3
ATP F+ATP/F−ATP [6]: 3.2

Kd [4]: 1570 nM
kon [5]: 340000 M⁻¹ s⁻¹
Kd [5]: 810 nM
koff [5]: 0.28 s⁻¹
Kd ratio ATP/ADP [6]: 324
Kd [6]: 507000 nM
B3: T175L: MDCC-ParM (His6/I27C/T175L/C287A) (conjugate, UniProt P11904 1-320, looked up, variant I27C T175L C287A)
Plasmid segregation protein …: B1 chain with I27C, T175L, C287A
modifications: MDCC label; His6 tag
ADP F+ADP/F−ADP [4]: 1.9
ATP F+ATP/F−ATP [6]: 2.3
